For assay [1], the target named is T1, LRP2 CR89 V1047D (human, UniProt P98164 1022-1105).
T1 construct: also called YDWR
T1 sequence: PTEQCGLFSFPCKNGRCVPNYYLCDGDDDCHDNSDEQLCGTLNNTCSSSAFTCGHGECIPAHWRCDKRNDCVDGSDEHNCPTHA
Kind of assay: solid-phase assay; OD at the highest ligand concentration as percent of the highest OD of all ligands. As to the method: (§1) Solid phase binding assays-Purified, refolded CR protein (1 μg) was bound to Nunc Maxisorp™ 96-well plates in TBS pH 8 supplemented with 5 mM CaCl₂ (TBSC) overnight at 4° C. Wells were washed with TBSC and then blocked with TBSC containing 2% bovine serum albumin (BSA). […] Control wells contained no added ligand. As an additional control, to determine whether the absence of calcium affected binding, 10 mM EGTA was included in the incubation medium for some samples. […] Excess primary antibody was removed and wells washed before incubation with the secondary antibody, HRP-conjugated goat anti rabbit IgG (Bio-Rad). After washing, TMB substrate solutions (Bio-Rad) were added to detect HRP. Color development was stopped with 1N HCl. Absorption at 450 nm was measured with a microplate spectrophotometer (Molecular Devices). Data were plotted and Kd values derived by non-linear regression with the assumption of single-site binding (GraphPad Prism).
(§2) To test this idea, mutant LRP2 CR89 were prepared in which the native, non-canonical residues at these positions were sequentially substituted with the non-native, canonical residues. As defined above, the A, C, A′, C′ string for LRP2 CR89 is YVWR. Mutants included LRP2 CR89 Y1042W (WVWR), LRP2 CR89 V1047D (YDWR), LRP2 CR89 R1088D (YVWD), LRP2 CR89 V1047D R1088D (YDWD), LRP2 CR89 Y1042W V1047D R1088D (WDWD), LRP2 CR89 Y1042W V1047D (WDWR), LRP2 CR89 Y1042W R1088D (WVWD).

Assay [2] concerns the target T2, LRP2 CR89 Y1042W V1047D (human, UniProt P98164 1022-1105).
T2 construct: also called WDWR
T2 chain: T1 sequence with Y22W
The description is as above. As for the experimental part:
as §1, §2

The target of assay [3] is T3, LRP2 CR89 R1088D (human, UniProt P98164 1022-1105).
T3 construct: also called YVWD
The description is as above. As to the method: as §1, §2

The target of assay [4] is T4, LRP2 CR89 V1047D R1088D (human, UniProt P98164 1022-1105).
T4 construct: also called YDWD
T4 sequence: T1 sequence with R68D
Described as above. As for the experimental part:
as §1, §2

For assay [5], the target named is T5, LRP2 CR89 (human, UniProt P98164 1025-1102).
T5 construct: domain: CR89; also called YVWR; L2 CR89; not shown: N-terminal hexahistidine and S-peptide tags of pET30(+)a
The assay is described as above. As for the experimental part:
as §1, §2

In assay [6] the target is T6, LRP2 CR89 Y1042W V1047D R1088D (human, UniProt P98164 1022-1105).
T6 construct: also called WDWD
T6 chain: T1 sequence with Y22W, R68D
The assay is described as above. As for the experimental part: as §1, §2

Assay [7] has as its target T7, LRP2 CR89 Y1042W R1088D (human, UniProt P98164 1022-1105).
T7 construct: also called WVWD
T7 chain: T1 sequence with Y22W, D27V, R68D
The description is as above. As to the method: as §1, §2

For assay [8], the target named is T1, LRP2 CR89 V1047D. Put plainly: solid-phase assay on coated CR protein, anti-RAP detection, A450. As for the experimental part:
as §1, §2

In assay [9] the target is T2, LRP2 CR89 Y1042W V1047D. The description is as above. As to the method: as §1, §2
For assay [10], the target named is T4, LRP2 CR89 V1047D R1088D. The description is as above. As for the experimental part:
as §1, §2

Assay [11] deals with T6, LRP2 CR89 Y1042W V1047D R1088D. The description is as above. As to the method: as §1, §2
Assay [12] addresses T7, LRP2 CR89 Y1042W R1088D. Described as above. As for the experimental part: as §1, §2
In assay [13] the target is T8, LRP1 CR3-5 (human).
T8 construct: range 852-973; also called L1 CR3-5
Put plainly: solid-phase assay; OD at the highest ligand concentration as percent of the highest OD of all ligands. As to the method:
as §1

The target of assay [14] is T5, LRP2 CR89. The assay is described as above. As for the experimental part: as §1
This is another data set of the same source.

For assay [15], the target named is T3, LRP2 CR89 R1088D. Kind of assay: solid-phase binding assay, CR protein coated on plate, anti-RAP detection.
Assay [16] deals with T5, LRP2 CR89. Put plainly: solid-phase assay on coated CR protein, single-site non-linear fit. As to the method:
Data were plotted and fitted by non-linear regression with the assumption of a single binding site (GraphPad Prism). Kd values with standard deviations were derived from the regression analysis.
as §1

Positions count from the first letter of the chain named.

T5 sequence (P98164 1025-1102): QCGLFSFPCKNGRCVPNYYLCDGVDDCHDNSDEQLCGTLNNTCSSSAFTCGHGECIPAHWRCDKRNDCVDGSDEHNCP
T8 sequence (Q07954 852-973): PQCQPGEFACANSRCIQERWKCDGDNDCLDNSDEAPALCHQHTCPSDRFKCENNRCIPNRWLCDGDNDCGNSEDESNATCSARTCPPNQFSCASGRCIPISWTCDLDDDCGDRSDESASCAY

B1: MegaRAP1 d3 (ligand)
chain: LDRLRRVSHQGYTTEAKFEEPRVIDLWDLAQSANLTDKELEAFREELKYFKAKIEAHNHYQKQLEIAHEELRHAESVGDGERVSRSREKHALLEGRTKELGYTVKKHLQDLSGRISRAR
notes: V175L lies outside the d3 construct; also called RAPv2A d3; RAP v2 d3; not shown: N-terminal hexahistidine and S-peptide tags of pET30(+)a
For the molecule B1, the “% max bind” value amounted to 11% in [1]; 3% in assay [2]; 55% in assay [3]; 3% in [4]; 100% in assay [5]; 1% in assay [6]. For the same molecule, the “% max bind” value in assay [7] is 4%. For the same molecule, the binding result in assay [8], in assay [9], in assay [10], in assay [11] and in assay [12] was “no binding (tested: 100 nM)” each time. For the same molecule, the figures for the “% max” value in assay [13] and in [14] were 4% and 88%, respectively. Besides, the “fold loss of affinity relative to LRP2 CR89” value in assay [15] was ~2 fold. Also, the Kd in [16] was 0.038 µM.

In general, Kd refers to the concentration at which binding is half-saturated.

The values are drawn from patent publication US20100210517A1 (RAPTOR PHARMACEUTICAL, published 2010).
